Read-outs that look alike come from different tables or passages of the source.
Legend:
Experiment in all cases: SPR; Biacore 3000; HopZ1a proteins, GST or BSA immobilised on CM5 chips by amine coupling; 500 µg/ml (Figure S1A: 250 µg/ml) tubulin injected; 25°C, HBS-EP running buffer (0.01 M HEPES pH 7.4, 0.15 M NaCl, 3 mM EDTA, 0.005% Surfactant P20)
[1] = target: GST-HopZ1a (Pseudomonas syringae pv. syringae A2) (UniProt Q6VE93)
[2] = target: HIS-HopZ1a(C216A) (Pseudomonas syringae pv. syringae A2) (UniProt Q6VE93)
[3] = target: HIS-HopZ1a (Pseudomonas syringae pv. syringae A2) (UniProt Q6VE93)
[4] = target: HIS-HopZ1a(K289R) (Pseudomonas syringae pv. syringae A2) (UniProt Q6VE93)
[5] = target: HIS-HopZ1a (Pseudomonas syringae pv. syringae A2) (UniProt Q6VE93); remark: listed apart in the source

Substance	RU difference [1] [RU]	RU difference [2] [RU]	RU difference (250 µg/ml tubulin) [2] [RU]	RU difference [3] [RU]	RU difference (250 µg/ml tubulin) [3] [RU]	RU difference (6973 RU HIS-HopZ1a immobilised) [3] [RU]	RU difference (13598 RU HIS-HopZ1a immobilised) [3] [RU]	RU difference (18289 RU HIS-HopZ1a immobilised) [3] [RU]	RU difference [4] [RU]	RU difference [5] [RU]
bovine brain tubulin heterodimers (from UniProt Q6B856 1-445) (complex)	36	1150	463	1050	630	59	324	615	186	117
soybean tubulin (complex)	305			1230						

Source: PMC3271077
